Experimental data as given in patent publication US20240240209A1, “SYNTHESIS OF ENANTIOPURE CIS-A-IRONE FROM A RENEWABLE CARBON SOURCE” (Agency for Science, Technology and Research, priority 2021, published 2024).

Assay: Fed-batch production of cis-α-irone in 5 L bioreactor
Assay type: cell-based, Escherichia coli
Settings: 10% DO, another 24 h after feeding stopped
Method: FIGS. 5a and 5b show the time-course profiles of OD600, cis-α-irone, β-irone and psi-ionone titers when DO was controlled at 2% and 10% respectively.
Lastly, a single-phase fed-batch process was tested in a 5 L bioreactor. Even though 2O31 ΔmetJ strain produced a higher titer of cis-α-irone, its growth seemed to be impeded during fermentation. Thus, 2O31-pMT10 strain was tested. The optimized bioprocess for α-ionone was applied^8, in which the glucose feeding rate was set at 10 g/h and the glucose concentration was kept between 0-5 g/L. Two different dissolved oxygen (DO) levels were tested: 2% and 10%. Under these DO settings, evaporation was kept at minimum which is <0.05%. […] Subsequently, cis-α-irone production became faster at 2% DO than 10% DO. At 113 h, when glucose feeding was stopped, approximately 109 mg/L and 106 mg/L cis-α-irone were produced at 2% and 10% DO respectively. By continuing incubating the cultures for another 24 h, a final titer of approximately 153 mg/L and 172 mg/L cis-α-irone were produced at 2% and 10% DO respectively. Simultaneously, a decrease in psi-ionone concentration was observed during the last 24 h, indicating psi-ionone was converted to cis-α-irone. Other DO levels may also be used, for example 15%. […]

B1: pMT10: pMT1 with Y200F S182E L273V L180A A202L Y65F C156A T91P (protein)
chain: MPQEARTPQQQVTADEVGDWYDKFGEVYHLTLGESVHCGLWFPPDAPVPQDMELVTMSSQAQDRFTDYLIETLDPKAGQHLLDIGCGTGRPALKAARQRGIAVTGVAVSKEQIAAANRLAAGHGLTERLTFEVADAMRLPYEDESFDCAWAIESLAHMDRAKALGEAWRVLKPGGDLLVAEEVVTEELTEPETALFETLFALNVPPRLGEFFDIVSGAGFHTLSLKDLSANLAMTMNVFALGVYSRRAEFTERFGAEFVDGLLAGLGSAQETVIRKTRFFMATLRKPAV
modifications: Modified from pMT1
notes: pMT1 with Y200F S182E L273V L180A A202L Y65F C156A T91P
With B1 the “final titer of cis-α-irone” value was about 172 mg/L.
